Experimental findings from publication PMC12691643 are described below.

What all share (assay): affinity purification with mass spectrometry; HA-tagged TgWIP variants pulled down by the HA tag from lysates of DC2.4 cells infected 4 h at MOI 7; host partners by mass spectrometry; values are negative fold changes in peptide counts of the mutant immunoprecipitations relative to TgWIP^WT
In assay [1] the target is TgWIP^(WIRS mut), HA-tagged (Toxoplasma gondii).
Assay [2] concerns the target TgWIP^(PRR3 mut), HA-tagged (Toxoplasma gondii).
Assay [3] concerns the target TgWIP^(PRR2 mut), HA-tagged (Toxoplasma gondii).
The target in assay [4] is TgWIP^Y150A/Y199A, HA-tagged (Toxoplasma gondii).

B1: Abi3, endogenous in murine DC2.4 cells (natural protein)
chain: MAELQQLQQLQEFDIPTGREALRGNHSALLRVANYCEDNYLQATDKRKALEETMAFTTQALASVAYQVGNLAGHTLRMLDLQGAALRQVEAKMSTLGQMVNMHMEKVARREIGTLATVVRLPSNQKVIPPESLPSLTPYHRKPLNFACLDDIGHGVKDLSTQLSRTGTLSRKSIKAPATPVSATLGRPPRIPEPVQLPAVPDGKLSAASSASSLASAGSAEGASGIPQSKGQVAPATPPPPPVAPVTPPPPPLSAEVFLPPPPLEVSQPPLEAELPLPPPPALEGDELGLLPPPPPGFGPDEPSWVPASYLEKVVTLYPYTRQKDNELSFSEGTVICVTRRYSDGWCEGVSSEGTGFFPGNYVEPSC
B1: the negative fold change in peptide counts relative to TgWIP^WT in assay [1] is 1 fold; in assay [2], 7 fold; in assay [3] it was 3 fold; in assay [4], 1 fold.

B2: Nckap1l (Hem1), endogenous in murine DC2.4 cells (natural protein)
chain: MSLTSAYQLKLAEKLTILNDRGQGVLIRMYNIKKTCSDSKSKPPFLLEKSMESCLKYINKKFPNIDVRNSTQHLGPVHREKAEIIRFLTNYYQSFVDVMEFRDHVYELLNTIDACQCHFDINLNFDFTRSYLDLIVTYTSVILLLSRIEDRRILIGMYNCAHEMLHGHSDPSFARLGQMVLEYDHPLKKLTEEFGPHTKAVSGALLSLHFLFVRRNQGAEQWRSAQLLSLISSPPAMINPANSDTMACEYLSVEVMERWIIIGFLLCHGCLNSNSQCQKLWKLCLEGSLYITLIREDVLQVHKVTEDLFSSLKGYSKRVADIKESKEHAITNSGQFHCQRRQFLRTAVKELETVLNDEPGLLGPKALFAFMALSFIRDEVTWLVRHTENVTKTKTPEDYADSSIAELLFLLEEIRALVRRHIKVIQQYHLQYLARFDVLVLSDIIQNLSVCPEEESVIMSSFVSILSSLNLKQVDNEEKFDFSGLRLDWFRLQAYTSVSKAPLHLHENPDLAKVMNLIIFHSQMLDSVEKMLVETSDLSTFCFHLRTFEKMFATTLEEPTMLRYTIAFPLICAHFVHCVHEMCPEEYPHLKNHGLHHCNSFLEDLAKQTSNCVLEICAEQRNLNEQLLPKHCATTISKAKNKKSMKQRQAPRKGEPERDKPGAESHRKNRSLVTNMDKLHLNLTELALAMNHVHSFSVFEHTIFPSEYLSSHLEARLNRAIVTLAGYNATTQEILRPSELLAGVKAYISFIQSLAQFLGADASRIVRNALLQQTQPLDSSGEQTVTTLYTNWYLESLLRQASSGAIVLSPAMQAFISLPRDGEQNFSAEEFSDISEMRALAEILGPYGMKFLSENLMWHVTSQIVELKKLVVENMDILVQIRSNFSKPELMASLLPQLTGAENVLKRMTIIGVILSFRAMAQEGLQEVFSAHCPFLMGPIECLKEFVTPDTDIKVTLSVFELACAAGVSCDIDPALVAAIANLKADNSSPEEEYKVACLLLIFLAVSLPLLATDPSSFFSIEKDGYNNNIHCLTKAIIQVSAALFTLYNKNIETHLKEFLVVASVSLLQLGQETDKLKTRNRESISLLMRLVVEESPFLTLDMLESCFPYVLLRNAYREVSRAFYLNRLPASSH
In the case of B2, the negative fold change in peptide counts relative to TgWIP^WT amounted to 2 fold in assay [1], 4 fold in assay [2], 3 fold in assay [3] and 1 fold in assay [4].
